Data: paper PMC9722916

Target: T1, rat TRPV2, C-terminally fused to GFP and a His8-tag (rat), Q9WUD2
T1 chain: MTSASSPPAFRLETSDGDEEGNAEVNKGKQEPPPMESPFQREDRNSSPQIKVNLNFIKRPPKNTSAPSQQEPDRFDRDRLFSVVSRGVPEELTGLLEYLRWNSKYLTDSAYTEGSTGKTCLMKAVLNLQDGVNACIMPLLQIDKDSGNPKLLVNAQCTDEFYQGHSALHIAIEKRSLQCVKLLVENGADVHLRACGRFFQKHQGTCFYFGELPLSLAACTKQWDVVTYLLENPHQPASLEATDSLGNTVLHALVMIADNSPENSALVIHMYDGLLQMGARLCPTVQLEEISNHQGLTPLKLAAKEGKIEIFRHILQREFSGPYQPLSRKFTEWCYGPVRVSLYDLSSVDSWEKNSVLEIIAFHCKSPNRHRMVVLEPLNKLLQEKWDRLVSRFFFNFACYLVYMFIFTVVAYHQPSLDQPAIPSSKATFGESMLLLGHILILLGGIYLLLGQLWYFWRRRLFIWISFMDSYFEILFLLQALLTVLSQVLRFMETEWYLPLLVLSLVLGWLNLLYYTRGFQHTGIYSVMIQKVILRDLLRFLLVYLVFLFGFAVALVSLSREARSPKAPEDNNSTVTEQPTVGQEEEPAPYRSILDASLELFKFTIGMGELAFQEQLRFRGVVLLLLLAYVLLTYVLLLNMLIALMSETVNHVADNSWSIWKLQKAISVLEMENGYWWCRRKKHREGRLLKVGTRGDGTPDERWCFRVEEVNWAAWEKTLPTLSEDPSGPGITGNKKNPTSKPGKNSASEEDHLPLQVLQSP
Assay: cryo-EM structure; purified rat TRPV2 in GDN (20 mM Tris 8.0, 150 mM NaCl, 0.4 mg/ml GDN), incubated with C16 (50 uM) and probenecid (2 mM), alone or in combination, at room temperature for 15 min; C4 symmetry (C16 and probenecid structures), C1 symmetry (C16+probenecid structures)
Conditions: remark: other sources report otherwise

B1: rat TRPV2, C-terminally fused to GFP and a His8-tag, Q9WUD2 1-761 (natural protein)
chain: MTSASSPPAFRLETSDGDEEGNAEVNKGKQEPPPMESPFQREDRNSSPQIKVNLNFIKRPPKNTSAPSQQEPDRFDRDRLFSVVSRGVPEELTGLLEYLRWNSKYLTDSAYTEGSTGKTCLMKAVLNLQDGVNACIMPLLQIDKDSGNPKLLVNAQCTDEFYQGHSALHIAIEKRSLQCVKLLVENGADVHLRACGRFFQKHQGTCFYFGELPLSLAACTKQWDVVTYLLENPHQPASLEATDSLGNTVLHALVMIADNSPENSALVIHMYDGLLQMGARLCPTVQLEEISNHQGLTPLKLAAKEGKIEIFRHILQREFSGPYQPLSRKFTEWCYGPVRVSLYDLSSVDSWEKNSVLEIIAFHCKSPNRHRMVVLEPLNKLLQEKWDRLVSRFFFNFACYLVYMFIFTVVAYHQPSLDQPAIPSSKATFGESMLLLGHILILLGGIYLLLGQLWYFWRRRLFIWISFMDSYFEILFLLQALLTVLSQVLRFMETEWYLPLLVLSLVLGWLNLLYYTRGFQHTGIYSVMIQKVILRDLLRFLLVYLVFLFGFAVALVSLSREARSPKAPEDNNSTVTEQPTVGQEEEPAPYRSILDASLELFKFTIGMGELAFQEQLRFRGVVLLLLLAYVLLTYVLLLNMLIALMSETVNHVADNSWSIWKLQKAISVLEMENGYWWCRRKKHREGRLLKVGTRGDGTPDERWCFRVEEVNWAAWEKTLPTLSEDPSGPGITGNKKNPTSKPGKNSASEEDHLPLQVLQSP
stoichiometry N: 4
